Key:
[1] = biological target: anti-FXI/FXIa antibody NOV1401; assay: cell-based or functional assay
[2] = biological target: anti-FXI/FXIa antibody NOV1401; assay: cell-based or functional assay; remark: listed apart in the source
[3] = biological target: T1, anti-FXI/FXIa antibody NOV1401; assay: SPR (ProteOn XPR36), NOV1401 amine-coupled on the chip, Fab as analyte 0.125-4 nM, Langmuir 1:1 fit, 25 C; n=1
T1 construct: It was amine-coupled to the chip in SPR; In SET it was titrated in solution, and biotinylated NOV1401 served only as the capture reagent on the plate
Protocol: SPR binding experiments were performed on a ProteOn XPR36 instrument (Bio-Rad Laboratories, Inc.) in PBS/T buffer (50 mM phosphate, 150 mM NaCl, pH 7.4, 0.005% v/v Tween-20) at 25° C. […] Unreacted groups were blocked by injecting 1 M ethanolamine.
Blank surfaces were used for background corrections. There was no need to regenerate surfaces since the ProteOn protein interaction array system allows to run up to six binding experiments on an identical surface in parallel.
Data processing and analysis including kon, koff, and KD determination were performed with the ProteOn Manager™ software version 3.1.0.6. Sensorgrams were fitted by applying a Langmuir 1:1 binding model (Rmax set at global) and dissociation constants were calculated from kon and koff.

[4] = biological target: T1, anti-FXI/FXIa antibody NOV1401; assay: solution equilibrium titration (SET), constant Fab with NOV1401 titrated in solution, free Fab captured on biotinylated NOV1401, 1:1 fit; average of n=3
Protocol: After washing the plate again three times, 30 μl of detection reagent (LumiGLO Peroxidase Chemiluminescent Substrate, KPL#54-61-01) was added to each well. Electrochemiluminescence (ECL) signals were generated and detected immediately with a luminescence imager (SpectraMax M5, Molecular Devices, LLC).
Average ECL-signals were calculated from duplicate measurements within each assay. Data were baseline adjusted by subtracting the lowest value from all data points and plotted against the corresponding antigen concentration.

T1 sequence (VH, as listed by the source, chain 1 of 2): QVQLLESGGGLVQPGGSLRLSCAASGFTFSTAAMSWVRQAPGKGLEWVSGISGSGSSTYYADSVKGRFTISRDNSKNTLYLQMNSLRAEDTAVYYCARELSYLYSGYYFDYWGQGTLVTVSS
T1 sequence (VL, as listed by the source, chain 2 of 2): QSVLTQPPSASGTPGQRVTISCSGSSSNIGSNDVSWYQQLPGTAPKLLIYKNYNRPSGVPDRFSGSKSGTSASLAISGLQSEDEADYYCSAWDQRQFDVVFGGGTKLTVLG

- percentage reversal of NOV1401 aPTT prolongation, NOV1401/anti NOV1401 ratio 1/1 (n/n) [1]: 21%
- percentage reversal of NOV1401 aPTT prolongation, NOV1401/anti NOV1401 ratio 1/3 (n/n) [1]: 42%
- percentage reversal of NOV1401 aPTT prolongation, NOV1401/anti NOV1401 ratio 1/10 (n/n) [1]: 55%
- percentage reversal of the NOV1401 effect on thrombin generation (TGA), NOV1401/anti NOV1401 ratio 1/1 (n/n) [2]: 55%
- percentage reversal of the NOV1401 effect on thrombin generation (TGA), NOV1401/anti NOV1401 ratio 1/3 (n/n) [2]: 57%
- percentage reversal of the NOV1401 effect on thrombin generation (TGA), NOV1401/anti NOV1401 ratio 1/10 (n/n) [2]: 61%
- Kd [3]: 230 pM
- Kd [4]: 100 pM
B1: IDT2 anti-NOV1401 Fab (Fab, V domains shown)
VH: QVQLVESGGGLVKPGGSLRLSCAASGFTFSSAAVHWVRQAPGKGLEWVGRIKSKADGGTTDYAAPVKGRFTISRDDSKNTLYLQMNSLKTEDTAVYYCARDSPSISSYSIPYFSGMDVWGQGTLVTVSS
VL: DIQMTQSPSSLSASVGDRVTITCRASQGIRAWLNWYQQKPGKAPKLLIYAASSLQSGVPSRFSGSGSGTDFTLTISSLQPEDFATYYCHQYITHPPTFGQGTKVEIKR
notes: Human Fab; The heavy chain entry is VH-CH1 (Fd); also called antidote
